Assay [1] addresses CgHspB1 N-terminal deletion mutant (CgHspB1DeltaN), N-terminal 30 amino acids deleted, from pET23b (Chinese hamster). Briefly: SEC; HPLC-SEC, SB-804HQ gel-filtration column, sample heated at the specified temperature for 30 min, buffer B (50 mM Tris-HCl pH 7.5, 0.1 mM EDTA, 150 mM NaCl) with or without 20% ethylene glycol, 1.0 mL/min. (Size exclusion chromatography separates by hydrodynamic size, large species first.)

In assay [2] the target is CgHspB1C145S, CgHspB1 mutant with Cys145 replaced by Ser (Chinese hamster). Briefly: AUC; sedimentation velocity, 40 °C, 0.5 mg/mL, without DTT (series with and without DTT).
Assay [3] has the same target. As to the kind of experiment: AUC; sedimentation velocity, 40 °C, 0.5 mg/mL, with DTT.
The target of assay [4] is CgHspB1S15D, phosphorylation mimic mutant of CgHspB1 (Ser15 replaced with Asp) (Chinese hamster). Briefly: AUC; sedimentation velocity, Rayleigh interference optics, 40,000 rpm, buffer containing 20% ethylene glycol; 40 °C, 0.1 mg/mL.
For assay [5] the target is unchanged. Briefly: AUC; sedimentation velocity, Rayleigh interference optics, 40,000 rpm, buffer containing 20% ethylene glycol; 4 °C, 0.1 mg/mL.
For assay [6] the target is unchanged. As to the kind of experiment: AUC; sedimentation velocity, Rayleigh interference optics, 40,000 rpm, buffer containing 20% ethylene glycol; 25 °C, 1.5 mg/mL.
The target is the same in assay [7]. Briefly: AUC; sedimentation velocity, Rayleigh interference optics, 40,000 rpm, buffer containing 20% ethylene glycol; 40 °C, 1.5 mg/mL.
The target is the same in assay [8]. Briefly: AUC; sedimentation velocity, Rayleigh interference optics, 40,000 rpm, buffer containing 20% ethylene glycol; 25 °C, 0.1 mg/mL.
Assay [9] has the same target. As to the kind of experiment: AUC; sedimentation velocity, Rayleigh interference optics, 40,000 rpm, buffer containing 20% ethylene glycol; 40 °C, 0.5 mg/mL.
Assay [10] shares this target. Briefly: AUC; sedimentation velocity, Rayleigh interference optics, 40,000 rpm, buffer containing 20% ethylene glycol; 4 °C, 1.5 mg/mL.
Assay [11] shares this target. Briefly: AUC; sedimentation velocity, Rayleigh interference optics, 40,000 rpm, buffer containing 20% ethylene glycol; 25 °C, 0.5 mg/mL.
For assay [12] the target is unchanged. As to the kind of experiment: AUC; sedimentation velocity, Rayleigh interference optics, 40,000 rpm, buffer containing 20% ethylene glycol; 4 °C, 0.5 mg/mL.
The target in assay [13] is HspB1 from Chinese hamster, wild type (CgHspB1WT) (Chinese hamster). Briefly: AUC; sedimentation velocity, Rayleigh interference optics, 40,000 rpm, buffer containing 20% ethylene glycol; 25 °C, 1.5 mg/mL.
Assay [14] shares this target. As to the kind of experiment: AUC; sedimentation velocity, Rayleigh interference optics, 40,000 rpm, buffer containing 20% ethylene glycol; 40 °C, 1.5 mg/mL.
The target is the same in assay [15]. As to the kind of experiment: AUC; sedimentation velocity, Rayleigh interference optics, 40,000 rpm, buffer containing 20% ethylene glycol; 25 °C, 0.5 mg/mL.

Among the data in article PMC8509488 are stoichiometry N values, retold here.

Broadly, the stoichiometry N is a count of units in the complex or per binding partner.

Take “CgHspB1 N-terminal deletion mutant (CgHspB1DeltaN), N-terminal 30 amino acids deleted, from pET23b (domain or fragment)”: the stoichiometry N in assay [1] was 6.
On to “CgHspB1C145S, CgHspB1 mutant with Cys145 replaced by Ser (natural protein)”, for which the stoichiometry N in [2] (c(s20,w) peak a) was 21; in assay [2] (c(s20,w) peak b), 25; in assay [2] (c(s20,w) peak c), 33; in [3] (c(s20,w) peak a), 21; in [3] (c(s20,w) peak b) it was 25; in assay [3] (c(s20,w) peak c), 32.
In the case of “CgHspB1S15D, phosphorylation mimic mutant of CgHspB1 (Ser15 replaced with Asp) (natural protein)”, the stoichiometry N stood at 26 in assay [4]; 19 in assay [5]; 19 in assay [6]; 27 in assay [7]; 18 in assay [8]; 26 in [9]. The stoichiometry N in assay [10] stood at 18; in assay [11] it was 19; in assay [12], 19.
“HspB1 from Chinese hamster, wild type (CgHspB1WT) (natural protein)”: the stoichiometry N stood at 20 in assay [13] (c(s20,w) peak a); 30 in assay [13] (c(s20,w) peak b); 20 in assay [14] (c(s20,w) peak a); 27 in [14] (c(s20,w) peak b); 38 in [14] (c(s20,w) peak c); 6 in assay [15] (c(s20,w) peak b). The substance also yielded a stoichiometry N in [15] (c(s20,w) peak c) of 18.
